Among the data in paper PMC11022716 are Kd values, retold here.

First the molecules themselves.
B1: mouse FcγRII (receptor)
chain: THDLPKAVVKLEPPWIQVLKEDTVTLTCEGTHNPGNSSTQWFHNGRSIRSQVQASYTFKATVNDSGEYRCQMEQTRLSDPVDLGVISDWLLLQTPQLVFLEGETITLRCHSWRNKLLNRISFFHNEKSVRYHHYSSNFSIPKANHSHSGDYYCKGSLGRTLHQSKPVTITVQGPKSSRSLP
B2: mouse FcγRIII (receptor)
chain: ALPKAVVKLDPPWIQVLKEDMVTLMCEGTHNPGNSSTQWFHNGRSIRSQVQASYTFKATVNDSGEYRCQMEQTRLSDPVDLGVISDWLLLQTPQRVFLEGETITLRCHSWRNKLLNRISFFHNEKSVRYHHYKSNFSIPKANHSHSGDYYCKGSLGSTQHQSKPVTITVQDPATTSSISLVWYHT
B3: mouse FcγRIV (receptor)
chain: GLQKAVVNLDPKWVRVLEEDSVTLRCQGTFSPEDNSIKWFHNESLIPHQDANYVIQSARVKDSGMYRCQTALSTISDPVQLEVHMGWLLLQTTKWLFQEGDPIHLRCHSWQNRPVRKVTYLQNGKGKKYFHENSELLIPKATHNDSGSYFCRGLIGHNNKSSASFRISLGDPGSPSMFPPWHQ
B4: mouse FcγRI (receptor)
chain: EVVNATKAVITLQPPWVSIFQKENVTLWCEGPHLPGDSSTQWFINGTAVQISTPSYSIPEASFQDSGEYRCQIGSSMPSDPVQLQIHNDWLLLQASRRVLTEGEPLALRCHGWKNKLVYNVVFYRNGKSFQFSSDSEVAILKTNLSHSGIYHCSGTGRHRYTSAGVSITVKELFTTPVLRASVSSPFPEGSLVTLNCETNLLLQRPGLQLHFSFYVGSKILEYRNTSSEYHIARAEREDAGFYWCEVATEDSSVLKRSPELELQVLGPQSSAP

73 (human), sequence (heavy, as listed by the source, chain 1 of 2): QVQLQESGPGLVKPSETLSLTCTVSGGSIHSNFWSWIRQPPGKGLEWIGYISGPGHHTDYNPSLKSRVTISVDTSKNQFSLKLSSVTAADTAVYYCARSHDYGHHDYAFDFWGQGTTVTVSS
73 (human), sequence (light, as listed by the source, chain 2 of 2): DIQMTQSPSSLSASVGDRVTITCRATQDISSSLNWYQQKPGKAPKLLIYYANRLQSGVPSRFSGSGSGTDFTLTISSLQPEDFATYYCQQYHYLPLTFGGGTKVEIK
hu1‐23 (human), sequence (heavy, as listed by the source, chain 1 of 2): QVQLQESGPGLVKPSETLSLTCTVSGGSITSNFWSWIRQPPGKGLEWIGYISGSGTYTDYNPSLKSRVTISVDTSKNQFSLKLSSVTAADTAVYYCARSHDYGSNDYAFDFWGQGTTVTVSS
hu1‐23 (human), sequence (light, as listed by the source, chain 2 of 2): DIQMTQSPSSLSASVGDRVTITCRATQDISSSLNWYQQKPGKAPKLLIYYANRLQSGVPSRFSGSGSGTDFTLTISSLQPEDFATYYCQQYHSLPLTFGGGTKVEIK

For the first assay, the target named is rc.hu1-23 (mouse). The experiment in a line: SPR; BIAcore 8K, 25 °C, HBS-EP+; antibodies with mIgG-Fc captured on a CM5 chip with immobilised anti-mouse antibodies; FcγRs injected at 400 to 3.125 nM (1:2 dilutions), 30 µL/min, 90 s association, 120 s dissociation; 1:1 Langmuir model. On the technique in general: In SPR one partner is held on a chip, and binding of the other changes the refractive index at the surface.
The Kd is the concentration at which binding is half-saturated. On to B1, for which the Kd is 196 nM.
In turn, B2 yielded a Kd of 2680 nM.

For the next assay, the target named is rc.73-DD (mouse). Described as above.
In turn, B1 returned a Kd of 2.97 nM.
B2 registered a Kd of 11.8 nM.

Another assay has as its target hu1‐23 (human). The experiment in a line: SPR; BIAcore 8K, 25 °C, HBS‐EP+ buffer; antibodies with hIgG‐Fc immobilised on a Series S Protein A sensor chip at 300 RU; recombinant mouse FcγRs injected at 400 to 3.125 nM, 30 µL/min, 90 s association, 120 s dissociation; 1:1 Langmuir binding model.
On to B3, for which the dissociation constant (Kd) worked out at 41.8 nM.
With B1, the dissociation constant Kd was 300 nM.
Consider B2, for which the Kd came out at 233 nM.
Take B4: the equilibrium dissociation constant (Kd) was 54.1 nM.

The target in a further assay is 73‐DY (human). The description is as above.
For the molecule B3, the Kd was determined as 54.3 nM.
Consider B1, for which the Kd was 9.72 nM.
On to B2, for which the Kd was 12 nM.
On the same count and under the same terms, then B4, with 11.1 nM.

Another assay addresses 73 (human). Described as above.
B3: the Kd turned out to be 42.6 nM.
Same read-out and setting: then B1, with 379 nM; and B4, with 45.2 nM.
